The record followed here is patent US20160264650A1 (Regeneron, published 2016).

What all share (assay): SPR Biacore T200, 37C, mAb capture
For assay [1], the target named is T1, Clostridium difficile toxin A, soluble full-length (TechLab) (Clostridium difficile, UniProt P16154 1-2710).
T1 construct: also called tcdA

In assay [2] the target is T1, Clostridium difficile toxin A, soluble …. The source holds these as a separate data set.
The target in assay [3] is T2, Clostridium difficile toxin B, soluble full-length (TechLab) (Clostridium difficile, UniProt P18177 2-2366).
T2 construct: also called tcdB

Like-named read-outs stand apart in the source and are kept apart here.

In general, Kd refers to the equilibrium constant for the complex coming apart. A low value points to higher affinity. A word on the koff: it is the first-order rate constant of dissociation. What is called kon is the rate constant with which the complex forms. Low values mean slow association, high ones fast association.

T2 sequence (P18177 2-2366 limits assumed): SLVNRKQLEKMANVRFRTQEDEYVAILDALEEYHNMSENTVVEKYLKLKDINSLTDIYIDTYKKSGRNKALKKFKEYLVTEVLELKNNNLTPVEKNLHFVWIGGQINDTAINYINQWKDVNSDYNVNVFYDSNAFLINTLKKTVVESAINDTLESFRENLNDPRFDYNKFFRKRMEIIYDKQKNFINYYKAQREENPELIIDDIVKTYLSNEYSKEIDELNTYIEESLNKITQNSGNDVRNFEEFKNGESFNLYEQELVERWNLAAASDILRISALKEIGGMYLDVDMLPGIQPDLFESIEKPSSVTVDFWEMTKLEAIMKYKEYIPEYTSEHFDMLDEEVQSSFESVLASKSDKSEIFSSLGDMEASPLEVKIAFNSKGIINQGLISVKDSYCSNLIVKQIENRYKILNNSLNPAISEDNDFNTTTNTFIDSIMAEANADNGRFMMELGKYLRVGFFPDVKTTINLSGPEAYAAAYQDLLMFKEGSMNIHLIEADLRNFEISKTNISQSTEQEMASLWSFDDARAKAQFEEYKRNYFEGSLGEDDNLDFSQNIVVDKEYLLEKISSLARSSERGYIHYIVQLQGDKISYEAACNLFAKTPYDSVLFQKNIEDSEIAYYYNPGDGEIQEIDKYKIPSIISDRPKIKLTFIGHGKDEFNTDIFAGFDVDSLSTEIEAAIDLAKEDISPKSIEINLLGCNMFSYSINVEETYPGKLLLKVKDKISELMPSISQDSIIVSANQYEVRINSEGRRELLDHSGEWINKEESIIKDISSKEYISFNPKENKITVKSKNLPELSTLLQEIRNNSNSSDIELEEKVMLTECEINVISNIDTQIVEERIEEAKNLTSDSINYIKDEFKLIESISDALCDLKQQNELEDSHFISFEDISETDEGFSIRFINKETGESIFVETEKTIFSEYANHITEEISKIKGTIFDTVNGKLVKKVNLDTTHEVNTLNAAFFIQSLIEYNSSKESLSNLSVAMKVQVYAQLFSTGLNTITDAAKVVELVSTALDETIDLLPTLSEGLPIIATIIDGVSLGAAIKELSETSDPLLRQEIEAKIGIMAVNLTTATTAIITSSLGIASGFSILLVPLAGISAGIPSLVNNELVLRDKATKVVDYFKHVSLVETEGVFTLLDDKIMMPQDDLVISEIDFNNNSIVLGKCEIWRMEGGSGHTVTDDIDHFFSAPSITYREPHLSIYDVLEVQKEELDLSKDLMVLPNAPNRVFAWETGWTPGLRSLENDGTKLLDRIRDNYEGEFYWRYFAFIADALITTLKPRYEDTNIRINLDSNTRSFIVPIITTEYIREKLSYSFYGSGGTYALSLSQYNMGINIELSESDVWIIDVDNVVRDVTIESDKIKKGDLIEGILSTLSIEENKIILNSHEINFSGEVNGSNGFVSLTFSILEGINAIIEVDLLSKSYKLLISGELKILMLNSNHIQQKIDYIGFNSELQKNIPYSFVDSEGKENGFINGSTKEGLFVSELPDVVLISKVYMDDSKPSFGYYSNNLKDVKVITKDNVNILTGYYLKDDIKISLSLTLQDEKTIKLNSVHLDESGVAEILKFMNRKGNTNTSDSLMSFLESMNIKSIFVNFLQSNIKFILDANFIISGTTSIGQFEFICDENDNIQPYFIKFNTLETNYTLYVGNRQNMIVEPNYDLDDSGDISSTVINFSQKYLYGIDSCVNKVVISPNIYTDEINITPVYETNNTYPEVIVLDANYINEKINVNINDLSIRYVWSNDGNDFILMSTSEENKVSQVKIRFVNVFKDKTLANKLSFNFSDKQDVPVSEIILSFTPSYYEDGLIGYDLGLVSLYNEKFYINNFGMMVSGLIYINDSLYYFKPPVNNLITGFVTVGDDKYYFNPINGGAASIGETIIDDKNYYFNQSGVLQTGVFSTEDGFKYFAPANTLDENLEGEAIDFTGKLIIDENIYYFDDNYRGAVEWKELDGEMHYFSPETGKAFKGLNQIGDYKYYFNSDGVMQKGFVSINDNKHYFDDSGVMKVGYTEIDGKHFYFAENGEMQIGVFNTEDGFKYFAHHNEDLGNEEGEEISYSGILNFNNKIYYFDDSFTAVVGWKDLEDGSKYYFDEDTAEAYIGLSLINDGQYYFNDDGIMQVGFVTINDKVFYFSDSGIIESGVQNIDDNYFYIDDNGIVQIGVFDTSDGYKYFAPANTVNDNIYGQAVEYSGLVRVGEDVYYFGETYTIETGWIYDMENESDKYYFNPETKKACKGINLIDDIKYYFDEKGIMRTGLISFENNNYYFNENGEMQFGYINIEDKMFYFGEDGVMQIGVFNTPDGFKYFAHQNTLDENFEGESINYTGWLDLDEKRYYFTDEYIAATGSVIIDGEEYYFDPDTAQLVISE

B1: H1H3117N (antibody, V domains shown)
VH: EVQLLESGGGLAQPGGSLRLSCAASGFNFGTHDMSWVRQAPGKGLEWVSGLTSTGGSASSADSVKGRFTISRDNSKNILYLQMNSLRAEDTAVYYCAKTFNWNSYFDYWGQGTLVTVSS
VL: EIVLTQSPGTLSLSPGERATLSCRASQSISTYYLAWYQQKPDQPPRLLIYGTSSRATGIPDRFSGSGSGTDFTLTISRLDPEDFAVYYCQQYGNSLYTFGQGTKLEIK
On to B1, for which, in assay [1], the Kd was 0.0793 nM, the “T½” value was found to be 5.53 h, the koff was determined as 3.84e-05 s⁻¹ and the kon came to 438000 M⁻¹ s⁻¹.

B2: H1H3067N (antibody, V domains shown)
VH: QIQLVESGGGVVQPGRSLRLSCVASGFTLSGHGMHWVRQAPGKGLEWVAFISFDGGHQDYTDAAEGRFTISRDNSKNTLYLEMVSLRPADTAIYYCVKGSDSSRGFGYWGRGILVTVSS
VL: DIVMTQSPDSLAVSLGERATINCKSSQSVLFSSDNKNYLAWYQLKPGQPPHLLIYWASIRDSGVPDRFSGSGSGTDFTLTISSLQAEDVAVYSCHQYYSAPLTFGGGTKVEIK
Regarding B2, in assay [2], the Kd was 0.24 nM, the “T½” value came to 5.58 h, the koff is 3.45e-05 s⁻¹ and the kon was determined as 144000 M⁻¹ s⁻¹.

B3: H1H3355P (antibody, V domains shown)
VH: EVQLVESGGGLVQPGRSLRLSCTASGFVFEDYAMHWVRQAPGKGLEWVSGISWNSGRIGYTDSVKGRFTVSRDNAKNSLYLQMNSLTTEDTALYYCAKDKSPSKWNLLGMDVWGQGTTVTVSS
VL: AIQMTQSPSSLSASVGDRVTITCRASQDIRNDLGWFQQKPGRAPNLLIFGASSLQSGVPSRFSGSGSGTDFTLTISGLQPEDFSTYYCLQDYTYPFTFGPGTKVDIKR
On to B3, for which the binding result in assay [3] is “no binding (tested: toxin at 5 to 10 nM)”.

B4: H1H3350P (antibody, V domains shown)
VH: QVQLVESGGGLVKPGGSLTLSCVASGFTFTDYYISWIRQAPGKGLEWISYIGTGGAAKYYADSVKGRFTVSRDNAKNSLYLLMNNLRAEDTAVYYCARDLGIFDLWGQGTLVTVSS
VL: EIVMTQSPATLSVSPGERATLSCRASQSVSSSLAWYHQKPGQAPRLLIHGVSTRATGIPARFSGTGSGTEFTLTISSLQSEDFAVYYCQQYHNWPPYTFGQGTKLEIKR
B4: in assay [1], the Kd is 0.0101 nM, the “T½” value was 47.6 h, the koff was 4.05e-06 s⁻¹ and the kon was 402000 M⁻¹ s⁻¹.

B5: H1H3401P (antibody, V domains shown)
VH: QVQLVESGGGVVQPGRSLRLSCEASGFTFSSYGMHWVRQAPGNGLEWIAVISSDGNNKYYIESVKGRFTMSRDNSKNTLYLQLNSLRTEDTAVYYCATYNWNDDGDGVFDYWGQGTLVTVSS
VL: DIQMTQSPSSVSASVGDRVTITCRASQGISNWLAWYQQKPGKAPKLLIYGTSSLQSGVPSRFSGSGSGTDFTLTISSLQPEDFATYYCQQVKSFPYTFGQGTKLEIKR
Consider B5, for which, in assay [3], binding was characterised by a dissociation constant (Kd) of 0.574 nM, the “T½” value was 0.8 h, the koff turned out to be 0.000241 s⁻¹ and the kon came to 420000 M⁻¹ s⁻¹.

B6: H1H3394P (antibody, V domains shown)
VH: QVQLVQSGAEVQKPGASVKVSCKASGYTFTDYYIHWVRQAPGQGLEWMGWINPKTGGTNYAPKFQGRVTMTRDSSIITAYMDLTRLTSDDTAVFYCARRGYNSRWSVFDYWGQGTLVTVSS
VL: EIVLTQSPGTLSLSPGERATLSCRASQSVYSNYLAWYQQKRGLAPRLLIYGASSRATGIPDRFSGSGSGTDFTLTISRLEPEDFAVYYCQQHGGSPVTFGGGTKVEIKR
As for B6, in assay [3], the Kd was determined as 0.333 nM, the “T½” value is 1.2 h, the koff amounted to 0.000162 s⁻¹ and the on-rate (kon) came out at 486000 M⁻¹ s⁻¹.

B7: H1H3134N (antibody, V domains shown)
VH: QVQLVESGGDVVQPGRSLRLSCAASGFTFSGHGMHWVRQAPGKGLEWVALILYDGSSEDYTDSVKGRFTVSRDNSKNTLYLQMNSLRAEDTAVYYCARGSILNRPFDYWGQGTLVTVSS
VL: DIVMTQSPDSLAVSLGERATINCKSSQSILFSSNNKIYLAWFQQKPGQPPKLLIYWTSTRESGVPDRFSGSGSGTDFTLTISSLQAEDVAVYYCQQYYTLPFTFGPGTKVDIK
With B7, in assay [2], binding was put at a Kd of 0.0278 nM, the “T½” value came to 68.3 h, the koff amounted to 2.82e-06 s⁻¹ and the kon is 102000 M⁻¹ s⁻¹.
